B1: WSB1 (parent)
chain: DLKDDGNMMKVLRGHQNWVYSCAF

Variants of: B1
Assay: protein stability index of a GFP-peptide fusion (GPS, HEK-293T) (PSI 1-6); higher = more stable
Conditions: c terminus: a fixed tail appended
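Also: lentivirally expressed fusions sorted by FACS into six bins by GFP to DsRed ratio, PSI derived from sequencing read proportions per bin multiplied by bin number.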

Point of comparison: DLKDDGNMMKVGRGHQNWVYSCAF [L12G], protein stability index 1.91. Against it:
- DLKDDGNMSKVLRGHQNWVYSCAF [M9S] — lower, 1.43
- DLKDDGNMNKVLRGHQNWVYSCAF [M9N] — lower, 1.89
- DLKDDGNMTKVLRGHQNWVYSCAF [M9T] — lower, 1.45
- DLKDDGNMIKVLRGHQNWVYSCAF [M9I] — higher, 4.37
- DLKDDGNMQKVLRGHQNWVYSCAF [M9Q] — lower, 1.73
- DLKDDGNMVKVLRGHQNWVYSCAF [M9V] — lower, 1.27
- DLKDDGNMEKVLRGHQNWVYSCAF [M9E] — higher, 2.03
- DLKDDGNMHKVLRGHQNWVYSCAF [M9H] — higher, 2.19
- DLKDDGNMFKVLRGHQNWVYSCAF [M9F] — higher, 2.67
- DLKDDGNMAKVLRGHQNWVYSCAF [M9A] — higher, 2.02
- DLKDDGNMLKVLRGHQNWVYSCAF [M9L] — lower, 1.61
- DLKDDGNMKKVLRGHQNWVYSCAF [M9K] — higher, 1.95
- DLKDDGNMDKVLRGHQNWVYSCAF [M9D] — lower, 1.88
- DLKDDGNMYKVLRGHQNWVYSCAF [M9Y] — lower, 1.06
- DLKDDGNMRKVLRGHQNWVYSCAF [M9R] — lower, 1.54
- DLKPDGNMMKVLRGHQNWVYSCAF [D4P] — higher, 2.28
- DLKRDGNMMKVLRGHQNWVYSCAF [D4R] — lower, 1.59
- DLKYDGNMMKVLRGHQNWVYSCAF [D4Y] — higher, 2.28
- DLKTDGNMMKVLRGHQNWVYSCAF [D4T] — higher, 1.98
- DLKSDGNMMKVLRGHQNWVYSCAF [D4S] — higher, 2.42
- DLKQDGNMMKVLRGHQNWVYSCAF [D4Q] — higher, 2.63
- DLKKDGNMMKVLRGHQNWVYSCAF [D4K] — higher, 2.29
- DLKNDGNMMKVLRGHQNWVYSCAF [D4N] — higher, 3.38
- DLKIDGNMMKVLRGHQNWVYSCAF [D4I] — higher, 2.67
- DLKLDGNMMKVLRGHQNWVYSCAF [D4L] — higher, 3.75
- DLKWDGNMMKVLRGHQNWVYSCAF [D4W] — higher, 2.2
- DLKMDGNMMKVLRGHQNWVYSCAF [D4M] — higher, 2.4
- DLKDDGNMMKVQRGHQNWVYSCAF [L12Q] — lower, 1.16
- DLKDDGNMMKVCRGHQNWVYSCAF [L12C] — higher, 2.38
- DLKDDGNMMKVDRGHQNWVYSCAF [L12D] — higher, 2.01
- DLKDDGNMMKVERGHQNWVYSCAF [L12E] — higher, 2.27
- DLKDDGNMMKVFRGHQNWVYSCAF [L12F] — lower, 1.67
- DLKDDGNMMKVTRGHQNWVYSCAF [L12T] — lower, 1.37
- DLKDDGNMMKVNRGHQNWVYSCAF [L12N] — lower, 1.5
- DLKDDGNMMKVIRGHQNWVYSCAF [L12I] — lower, 1.49
- DLKDDGNMMKVYRGHQNWVYSCAF [L12Y] — higher, 2.74
- DLKDDGNMMKVKRGHQNWVYSCAF [L12K] — lower, 1.85
- DLKDDGNMMKVWRGHQNWVYSCAF [L12W] — higher, 2.38
- DLKDDGNMMKVPRGHQNWVYSCAF [L12P] — higher, 2.2
- DLKDDGNMMKVRRGHQNWVYSCAF [L12R] — higher, 3.69
- DLKDDGNMMKVMRGHQNWVYSCAF [L12M] — lower, 1.24
- DLKDDGNMMKVHRGHQNWVYSCAF [L12H] — lower, 1.44
- DLKDDGNIMKVLRGHQNWVYSCAF [M8I] — higher, 2.03
- DLKDDGNPMKVLRGHQNWVYSCAF [M8P] — higher, 2.44
- DLKDDGNWMKVLRGHQNWVYSCAF [M8W] — lower, 1.09
- DLKDDGNKMKVLRGHQNWVYSCAF [M8K] — higher, 2.15
- DLKDDGNVMKVLRGHQNWVYSCAF [M8V] — lower, 1.54
- DLKDDGNRMKVLRGHQNWVYSCAF [M8R] — higher, 2.35
- DLKDDGNGMKVLRGHQNWVYSCAF [M8G] — higher, 2.55
- DLKDDGNDMKVLRGHQNWVYSCAF [M8D] — higher, 2.5
- DLKDDGNLMKVLRGHQNWVYSCAF [M8L] — lower, 1.15
- DLKDDGNQMKVLRGHQNWVYSCAF [M8Q] — higher, 2.26
- DLKDDGNTMKVLRGHQNWVYSCAF [M8T] — lower, 1.54
- DLKDDGNYMKVLRGHQNWVYSCAF [M8Y] — lower, 1.39
- DLKDDGNCMKVLRGHQNWVYSCAF [M8C] — lower, 1.38
- DLKDDGNSMKVLRGHQNWVYSCAF [M8S] — higher, 2.02
- DLKDDGNAMKVLRGHQNWVYSCAF [M8A] — lower, 1.83
- DLKDDGNNMKVLRGHQNWVYSCAF [M8N] — higher, 2.29
- DLKDDGNHMKVLRGHQNWVYSCAF [M8H] — higher, 2.34
- DLKDDGNMMDVLRGHQNWVYSCAF [K10D] — lower, 1.72
- DLKDDGNMMSVLRGHQNWVYSCAF [K10S] — higher, 1.96
- DLKDDGNMMHVLRGHQNWVYSCAF [K10H] — higher, 1.96
- DLKDDGNMMMVLRGHQNWVYSCAF [K10M] — lower, 1.55
- DLKDDGNMMAVLRGHQNWVYSCAF [K10A] — higher, 2.38
- DLKDDGNMMEVLRGHQNWVYSCAF [K10E] — lower, 1.49
- DLKDDGNMMYVLRGHQNWVYSCAF [K10Y] — higher, 2.78
- DLKDDGNMMIVLRGHQNWVYSCAF [K10I] — higher, 2.34
- DLKDDGNMMNVLRGHQNWVYSCAF [K10N] — lower, 1.31
- DLKDDGNMMPVLRGHQNWVYSCAF [K10P] — higher, 2.27
- DLKDDGNMMQVLRGHQNWVYSCAF [K10Q] — higher, 2.02
- DLKDDGNMMCVLRGHQNWVYSCAF [K10C] — higher, 2.19
- DLKDDGNMMVVLRGHQNWVYSCAF [K10V] — higher, 2.1
- DLKDDGNMMFVLRGHQNWVYSCAF [K10F] — higher, 4.7
- DLKDDGNMMTVLRGHQNWVYSCAF [K10T] — lower, 1.5
- DLKDDGNMMRVLRGHQNWVYSCAF [K10R] — higher, 2.4
- DLKDDGNMMLVLRGHQNWVYSCAF [K10L] — higher, 2.53
- DLKDDGNMMKELRGHQNWVYSCAF [V11E] — higher, 2.01
- DLKDDGNMMKSLRGHQNWVYSCAF [V11S] — higher, 2.79
- DLKDDGNMMKYLRGHQNWVYSCAF [V11Y] — higher, 2.26
- DLKDDGNMMKQLRGHQNWVYSCAF [V11Q] — higher, 2.62
- DLKDDGNMMKDLRGHQNWVYSCAF [V11D] — higher, 1.93
- DLKDDGNMMKKLRGHQNWVYSCAF [V11K] — lower, 1.57
- DLKDDGNMMKRLRGHQNWVYSCAF [V11R] — lower, 1.69
- DLKDDGNMMKPLRGHQNWVYSCAF [V11P] — higher, 2.31
- DLKDDGNMMKILRGHQNWVYSCAF [V11I] — lower, 1.59
- DLKDDGNMMKLLRGHQNWVYSCAF [V11L] — lower, 1.63
- DLKDDGNMMKALRGHQNWVYSCAF [V11A] — lower, 1.75
- DLKDDGNMMKNLRGHQNWVYSCAF [V11N] — lower, 1.57
- DLKDDGNMMKGLRGHQNWVYSCAF [V11G] — lower, 1.65
- DLKDDGNMMKFLRGHQNWVYSCAF [V11F] — higher, 2.64
- DLKDDGNMMKWLRGHQNWVYSCAF [V11W] — higher, 2
- DLKDDGNMMKTLRGHQNWVYSCAF [V11T] — higher, 2.41
- DLKDDGNMMKMLRGHQNWVYSCAF [V11M] — higher, 2

From the supplement of paper PMC10567573
